# Data as given in paper PMC6938246.
# Tests used:
# [1] = molecular target: filamentous actin (F-actin) (rabbit) (UniProt P68135); assay: co-sedimentation
# [2] = molecular target: filamentous actin (F-actin) (rabbit) (UniProt P68135); assay: single-molecule TIRF microscopy
# Chain of utrophin actin-binding domain (CH1–CH2), wild type (P46939 31-256): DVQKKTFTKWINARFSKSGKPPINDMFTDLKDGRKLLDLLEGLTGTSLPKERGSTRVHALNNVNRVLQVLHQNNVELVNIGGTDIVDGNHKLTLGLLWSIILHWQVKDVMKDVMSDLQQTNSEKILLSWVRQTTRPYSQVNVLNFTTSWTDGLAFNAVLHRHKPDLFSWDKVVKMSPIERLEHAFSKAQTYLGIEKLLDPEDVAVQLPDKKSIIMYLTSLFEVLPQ
# Chain of plectin actin-binding domain (CH1–CH2) (domain or fragment) (Q15149 60-293): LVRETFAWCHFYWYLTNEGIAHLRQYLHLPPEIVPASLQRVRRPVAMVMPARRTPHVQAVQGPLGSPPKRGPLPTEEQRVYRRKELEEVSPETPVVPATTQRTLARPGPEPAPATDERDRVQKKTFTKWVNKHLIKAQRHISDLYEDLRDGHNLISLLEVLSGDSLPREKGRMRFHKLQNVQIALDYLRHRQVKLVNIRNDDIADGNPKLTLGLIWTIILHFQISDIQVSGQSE
# Chain of utrophin actin-binding domain with residues 1–27 truncated (Δ-n-term) (P46939 28-3433, stated change not applied): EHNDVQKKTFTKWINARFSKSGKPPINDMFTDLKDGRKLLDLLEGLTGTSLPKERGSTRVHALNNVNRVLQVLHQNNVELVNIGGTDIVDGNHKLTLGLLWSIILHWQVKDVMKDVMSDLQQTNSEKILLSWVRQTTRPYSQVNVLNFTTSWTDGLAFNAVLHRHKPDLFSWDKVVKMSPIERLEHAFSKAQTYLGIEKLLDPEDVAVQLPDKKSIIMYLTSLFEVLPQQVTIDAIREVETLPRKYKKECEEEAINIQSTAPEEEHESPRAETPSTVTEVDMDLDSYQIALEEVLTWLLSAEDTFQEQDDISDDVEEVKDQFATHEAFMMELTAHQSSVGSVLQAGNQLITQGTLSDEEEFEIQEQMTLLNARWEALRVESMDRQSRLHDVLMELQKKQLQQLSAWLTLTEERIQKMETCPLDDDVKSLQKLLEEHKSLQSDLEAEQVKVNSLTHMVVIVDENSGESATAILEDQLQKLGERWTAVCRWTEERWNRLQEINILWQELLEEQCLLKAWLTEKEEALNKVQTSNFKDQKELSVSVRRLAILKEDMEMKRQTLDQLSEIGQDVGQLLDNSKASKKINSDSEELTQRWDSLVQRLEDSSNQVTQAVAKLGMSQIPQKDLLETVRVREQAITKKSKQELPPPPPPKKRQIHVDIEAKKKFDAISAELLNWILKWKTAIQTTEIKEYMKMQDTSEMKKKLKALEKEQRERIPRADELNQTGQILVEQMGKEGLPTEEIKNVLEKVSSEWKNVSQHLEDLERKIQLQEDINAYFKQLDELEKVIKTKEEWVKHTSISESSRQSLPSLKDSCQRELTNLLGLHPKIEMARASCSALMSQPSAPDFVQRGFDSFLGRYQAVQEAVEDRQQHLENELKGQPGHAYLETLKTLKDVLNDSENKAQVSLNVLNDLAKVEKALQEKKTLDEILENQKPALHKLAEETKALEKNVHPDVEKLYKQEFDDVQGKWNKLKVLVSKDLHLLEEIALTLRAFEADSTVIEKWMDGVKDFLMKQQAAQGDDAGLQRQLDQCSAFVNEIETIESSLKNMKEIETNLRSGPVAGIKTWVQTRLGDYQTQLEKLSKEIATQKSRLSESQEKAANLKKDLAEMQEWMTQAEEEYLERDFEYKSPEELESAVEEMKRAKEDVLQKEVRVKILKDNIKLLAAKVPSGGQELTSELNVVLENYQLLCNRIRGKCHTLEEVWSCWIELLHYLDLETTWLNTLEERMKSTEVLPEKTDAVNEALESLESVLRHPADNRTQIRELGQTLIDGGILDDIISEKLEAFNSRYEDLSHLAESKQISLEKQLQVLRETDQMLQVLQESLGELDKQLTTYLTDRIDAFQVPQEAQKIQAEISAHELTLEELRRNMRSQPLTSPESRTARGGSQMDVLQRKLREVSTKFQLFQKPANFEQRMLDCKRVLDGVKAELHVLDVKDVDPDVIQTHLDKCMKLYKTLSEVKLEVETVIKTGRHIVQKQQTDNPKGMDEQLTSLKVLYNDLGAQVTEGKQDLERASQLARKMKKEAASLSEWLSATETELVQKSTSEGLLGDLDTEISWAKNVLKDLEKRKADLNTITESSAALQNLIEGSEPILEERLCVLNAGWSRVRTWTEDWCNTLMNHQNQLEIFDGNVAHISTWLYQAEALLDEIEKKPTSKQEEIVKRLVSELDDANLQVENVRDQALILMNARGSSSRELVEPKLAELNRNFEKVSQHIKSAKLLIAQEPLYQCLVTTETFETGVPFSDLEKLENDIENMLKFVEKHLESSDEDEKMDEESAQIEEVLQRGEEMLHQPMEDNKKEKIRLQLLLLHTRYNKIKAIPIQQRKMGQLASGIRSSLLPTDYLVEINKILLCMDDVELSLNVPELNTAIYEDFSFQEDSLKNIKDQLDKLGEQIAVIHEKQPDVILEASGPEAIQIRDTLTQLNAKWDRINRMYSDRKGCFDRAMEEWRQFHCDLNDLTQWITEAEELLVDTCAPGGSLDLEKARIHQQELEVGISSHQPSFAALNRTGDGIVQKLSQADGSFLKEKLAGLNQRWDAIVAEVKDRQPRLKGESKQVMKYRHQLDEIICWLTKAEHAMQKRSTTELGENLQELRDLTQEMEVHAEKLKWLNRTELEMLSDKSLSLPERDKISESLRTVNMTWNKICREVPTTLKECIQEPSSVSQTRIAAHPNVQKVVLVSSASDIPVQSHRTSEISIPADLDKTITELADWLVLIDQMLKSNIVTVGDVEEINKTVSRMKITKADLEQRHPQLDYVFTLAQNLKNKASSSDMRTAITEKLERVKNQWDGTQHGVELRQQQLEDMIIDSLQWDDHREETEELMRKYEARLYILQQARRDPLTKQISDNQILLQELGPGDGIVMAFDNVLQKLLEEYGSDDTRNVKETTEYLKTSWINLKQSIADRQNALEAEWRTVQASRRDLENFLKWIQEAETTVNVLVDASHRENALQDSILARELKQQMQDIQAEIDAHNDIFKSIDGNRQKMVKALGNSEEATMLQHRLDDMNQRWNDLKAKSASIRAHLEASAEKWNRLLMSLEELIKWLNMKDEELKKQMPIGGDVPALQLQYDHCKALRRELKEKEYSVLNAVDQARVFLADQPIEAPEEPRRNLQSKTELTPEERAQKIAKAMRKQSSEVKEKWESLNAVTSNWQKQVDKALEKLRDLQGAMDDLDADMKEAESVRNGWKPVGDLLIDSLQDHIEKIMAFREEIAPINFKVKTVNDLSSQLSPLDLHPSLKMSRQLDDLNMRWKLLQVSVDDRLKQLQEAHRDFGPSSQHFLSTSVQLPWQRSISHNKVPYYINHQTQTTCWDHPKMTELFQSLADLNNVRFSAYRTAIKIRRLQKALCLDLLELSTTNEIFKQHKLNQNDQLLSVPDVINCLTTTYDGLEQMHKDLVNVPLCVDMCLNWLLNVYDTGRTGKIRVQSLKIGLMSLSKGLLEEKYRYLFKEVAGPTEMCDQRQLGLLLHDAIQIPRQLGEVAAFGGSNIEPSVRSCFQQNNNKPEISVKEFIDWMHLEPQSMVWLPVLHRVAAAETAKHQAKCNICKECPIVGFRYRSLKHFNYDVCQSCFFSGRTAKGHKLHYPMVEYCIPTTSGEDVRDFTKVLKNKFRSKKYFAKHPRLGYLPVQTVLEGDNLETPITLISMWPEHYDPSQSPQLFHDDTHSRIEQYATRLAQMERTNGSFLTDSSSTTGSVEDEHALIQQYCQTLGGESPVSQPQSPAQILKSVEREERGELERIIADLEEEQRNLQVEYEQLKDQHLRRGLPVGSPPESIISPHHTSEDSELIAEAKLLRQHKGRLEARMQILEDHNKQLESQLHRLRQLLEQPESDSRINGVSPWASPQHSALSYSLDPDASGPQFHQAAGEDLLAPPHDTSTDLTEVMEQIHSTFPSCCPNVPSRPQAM
Kd [1] [µM],mean dwell time of binding events [2] [s],Substance
120,,plectin actin-binding domain (CH1–CH2) (domain or fragment)
45.1,,plectin actin-binding domain K278E (domain or fragment)
13.8,0.96,"utrophin actin-binding domain (CH1–CH2), wild type (from UniProt P46939 31-256) (domain or fragment)"
0.4,8.49,utrophin actin-binding domain Q33A T36A (from UniProt P46939 31-256) (domain or fragment)
53.8,,utrophin actin-binding domain S158C conjugated with maleimide-750Da PEG (from UniProt P46939 31-256) (domain or fragment)
12.5,,"utrophin actin-binding domain S158C, unconjugated (from UniProt P46939 31-256) (domain or fragment)"
31.4,,utrophin actin-binding domain with residues 1–27 truncated (Δ-n-term) (from UniProt P46939 28-3433) (domain or fragment)
